Test results reported in patent US20220306707A1 (INDUSTRY UNIVERSITY COOPERATION FOUNDATION HANYANG …, published 2022).

Columns and labels:
[1] = target: T1, Flag-NLRP3 wild-type (WT), full-length, transfected into 293T cells (UniProt Q96P20 1-1036); experiment: GST pulldown in transfected 293T cells (FIG. 3A)
T1 construct: also called wild-type (WT) NLRP3; not shown: Flag tag

[2] = target: endogenous mouse NLRP3 (bone marrow-derived macrophages and splenocytes of C57BL/6 mice) (mouse, UniProt Q8R4B8 1-1033); experiment: immunoprecipitation from LPS- and ATP-treated BMDMs (FIG. 4D)
Chain of endogenous mouse NLRP3 (bone marrow-derived macrophages and splenocytes of C57BL/6 mice) (Q8R4B8 whole entry): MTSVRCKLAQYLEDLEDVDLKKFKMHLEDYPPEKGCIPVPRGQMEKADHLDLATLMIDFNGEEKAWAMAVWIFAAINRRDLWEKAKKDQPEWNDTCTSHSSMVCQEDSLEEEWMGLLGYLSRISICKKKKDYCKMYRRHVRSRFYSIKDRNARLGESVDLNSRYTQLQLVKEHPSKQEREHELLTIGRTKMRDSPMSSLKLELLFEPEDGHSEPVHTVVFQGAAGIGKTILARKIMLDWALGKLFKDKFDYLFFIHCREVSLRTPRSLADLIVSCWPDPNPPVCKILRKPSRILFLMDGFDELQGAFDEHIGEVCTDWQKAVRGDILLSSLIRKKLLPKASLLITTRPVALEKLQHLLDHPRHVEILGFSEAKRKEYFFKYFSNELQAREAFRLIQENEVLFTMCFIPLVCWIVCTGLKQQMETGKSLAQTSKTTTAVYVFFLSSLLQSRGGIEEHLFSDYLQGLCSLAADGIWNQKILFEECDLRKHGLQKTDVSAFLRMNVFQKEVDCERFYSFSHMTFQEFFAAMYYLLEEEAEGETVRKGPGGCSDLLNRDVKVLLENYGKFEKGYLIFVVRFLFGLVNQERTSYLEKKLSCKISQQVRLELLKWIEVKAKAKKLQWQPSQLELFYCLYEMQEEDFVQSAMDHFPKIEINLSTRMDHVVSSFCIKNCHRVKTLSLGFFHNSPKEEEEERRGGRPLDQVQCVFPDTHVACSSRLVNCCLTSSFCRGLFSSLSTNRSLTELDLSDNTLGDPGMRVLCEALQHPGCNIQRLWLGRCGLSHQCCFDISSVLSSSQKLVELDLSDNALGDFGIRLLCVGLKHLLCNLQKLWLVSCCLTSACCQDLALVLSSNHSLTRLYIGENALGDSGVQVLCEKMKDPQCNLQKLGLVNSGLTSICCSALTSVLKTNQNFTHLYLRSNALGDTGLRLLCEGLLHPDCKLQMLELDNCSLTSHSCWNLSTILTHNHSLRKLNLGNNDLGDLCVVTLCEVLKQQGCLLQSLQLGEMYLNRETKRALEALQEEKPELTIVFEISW

T1 sequence (Q96P20 whole entry): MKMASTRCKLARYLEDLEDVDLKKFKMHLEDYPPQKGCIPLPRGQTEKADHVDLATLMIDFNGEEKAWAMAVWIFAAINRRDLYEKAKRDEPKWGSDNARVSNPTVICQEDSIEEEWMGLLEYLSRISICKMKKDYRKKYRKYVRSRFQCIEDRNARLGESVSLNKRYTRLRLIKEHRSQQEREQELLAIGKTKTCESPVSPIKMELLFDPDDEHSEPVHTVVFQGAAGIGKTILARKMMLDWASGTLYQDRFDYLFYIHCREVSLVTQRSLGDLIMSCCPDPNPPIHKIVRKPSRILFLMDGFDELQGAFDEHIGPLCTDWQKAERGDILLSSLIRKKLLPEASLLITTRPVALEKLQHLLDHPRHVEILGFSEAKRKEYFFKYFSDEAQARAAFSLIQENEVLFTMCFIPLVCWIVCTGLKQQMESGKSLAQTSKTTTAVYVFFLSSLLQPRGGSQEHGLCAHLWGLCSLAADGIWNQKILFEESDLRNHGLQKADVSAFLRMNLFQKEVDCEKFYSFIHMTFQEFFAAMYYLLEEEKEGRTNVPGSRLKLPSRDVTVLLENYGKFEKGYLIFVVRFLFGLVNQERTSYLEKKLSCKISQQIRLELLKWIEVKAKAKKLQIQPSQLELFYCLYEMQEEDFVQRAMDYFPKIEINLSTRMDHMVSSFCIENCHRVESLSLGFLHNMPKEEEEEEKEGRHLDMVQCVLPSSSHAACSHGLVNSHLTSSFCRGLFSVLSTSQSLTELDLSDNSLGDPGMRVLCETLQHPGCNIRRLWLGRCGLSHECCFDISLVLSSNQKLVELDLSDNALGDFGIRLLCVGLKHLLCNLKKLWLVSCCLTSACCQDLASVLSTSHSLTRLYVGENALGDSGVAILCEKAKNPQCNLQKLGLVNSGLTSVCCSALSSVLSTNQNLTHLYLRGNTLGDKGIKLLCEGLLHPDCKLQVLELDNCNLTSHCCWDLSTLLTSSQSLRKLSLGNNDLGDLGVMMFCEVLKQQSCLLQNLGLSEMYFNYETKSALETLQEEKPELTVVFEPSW

| Binder | binding result [1] | binding result [2] |
| --- | --- | --- |
| GST-GRA9 C-terminal domain containing the Q200L mutation (other, also called GST-GRA9 C^Q200L; GST-GRA9 containing the Q200L mutation at the C-terminus) MSVDPLCIMTREVVAQKLAGWTDNTHTATAGTPKKLLISFPSPDHIKEMVKEGYLPDNALERVLAGDFEGFSRTQMCLVSGRNRTECAFAEGQE | no binding |  |
| recombinant GRA9C (residues 195-288) with N-terminal 6x His tag, purified from E. coli (other, also called rGRA9C; 6xHis-GRA9C) HHHHHHMSVDPQCIMTREVVAQKLAGWTDNTHTATAGTPKKLLISFPSPDHIKEMVKEGYLPDNALERVLAGDFEGFSRTQMCLVSGRNRTECAFAEGQE |  | binds |
| recombinant GRA9C^Q200L (residues 195-288, Q200L) with N-terminal 6x His tag, purified from E. coli (other, also called rGRA9C^Q200L) HHHHHHMSVDPLCIMTREVVAQKLAGWTDNTHTATAGTPKKLLISFPSPDHIKEMVKEGYLPDNALERVLAGDFEGFSRTQMCLVSGRNRTECAFAEGQE |  | no binding |
